Assay results from patent US20050118674A1, “Engineering of Controlled Deamidation Rates in Peptides, Proteins, and Similar Structures” (priority 2003, published 2005).

experiment: First-order nonenzymatic deamidation of pentapeptides in Tris buffer; format: physicochemical; settings: pH 7.4, 37.0° C., 0.15 M Tris HCl; Asn pentapeptides
Procedure, shortened: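 First-order deamidation rates determined for XxxAsnYyy and XxxGlnYyy pentapeptides in 0.15 M Tris buffer, pH 7.4, 37° C. Not all values were measured directly: several Asn rates were estimated and most Gln rates came from surface fitting.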

| Substance | First-Order Deamidation Halftimes of GlyXxxAsnYyyGly |
| --- | --- |
| GlyPheAsnAlaGly (GFNAG; printed: GlyPheAsnAlaGly) | 24.2 days |
| GlyPheAsnAmCysGly | 29.8 days |
| GlyPheAsnArgGly (GFNRG; printed: GlyPheAsnArgGly) | 61.2 days |
| GlyPheAsnAspGly (GFNDG; printed: GlyPheAsnAspGly) | 27.4 days |
| GlyPheAsnCysGly (GFNCG; printed: GlyPheAsnCysGly) | 46.5 days |
| GlyPheAsnGluGly (GFNEG; printed: GlyPheAsnGluGly) | 62.4 days |
| GlyPheAsnGlyGly (GFNGG; printed: GlyPheAsnGlyGly) | 1.15 days |
| GlyPheAsnHisGly (GFNHG; printed: GlyPheAsnHisGly) | 10.2 days |
| GlyPheAsnIleGly (GFNIG; printed: GlyPheAsnIleGly) | 287 days |
| GlyPheAsnLeuGly (GFNLG; printed: GlyPheAsnLeuGly) | 118 days |
| GlyPheAsnLysGly (GFNKG; printed: GlyPheAsnLysGly) | 58.2 days |
| GlyPheAsnMetGly (GFNMG; printed: GlyPheAsnMetGly) | 58.6 days |
| GlyPheAsnPheGly (GFNFG; printed: GlyPheAsnPheGly) | 69.5 days |
| GlyPheAsnProGly (GFNPG; printed: GlyPheAsnProGly) | 7990 days |
| GlyPheAsnSerGly (GFNSG; printed: GlyPheAsnSerGly) | 18.1 days |
| GlyPheAsnThrGly (GFNTG; printed: GlyPheAsnThrGly) | 39.0 days |
| GlyPheAsnTrpGly (GFNWG; printed: GlyPheAsnTrpGly) | 102 days |
| GlyPheAsnTyrGly (GFNYG; printed: GlyPheAsnTyrGly) | 75.1 days |

| Substance | First-Order Deamidation Halftimes of GlyXxxAsnYyyGly |
| --- | --- |
| GlyPheAsnValGly (GFNVG; printed: GlyPheAsnValGly) | 203 days |
| GlyProAsnAlaGly (GPNAG; printed: GlyProAsnAlaGly) | 31.8 days |
| GlyProAsnAmCysGly | 43.7 days |
| GlyProAsnArgGly (GPNRG; printed: GlyProAsnArgGly) | 72.9 days |
| GlyProAsnAspGly (GPNDG; printed: GlyProAsnAspGly) | 48.6 days |
| GlyProAsnCysGly (GPNCG; printed: GlyProAsnCysGly) | 60.0 days |
| GlyProAsnGluGly (GPNEG; printed: GlyProAsnGluGly) | 92.0 days |
| GlyProAsnGlyGly (GPNGG; printed: GlyProAsnGlyGly) | 1.18 days |
| GlyProAsnHisGly (GPNHG; printed: GlyProAsnHisGly) | 12.8 days |
| GlyProAsnIleGly (GPNIG; printed: GlyProAsnIleGly) | 455 days |
| GlyProAsnLeuGly (GPNLG; printed: GlyProAsnLeuGly) | 181 days |
| GlyProAsnLysGly (GPNKG; printed: GlyProAsnLysGly) | 67.8 days |
| GlyProAsnMetGly (GPNMG; printed: GlyProAsnMetGly) | 78.4 days |
| GlyProAsnPheGly (GPNFG; printed: GlyProAsnPheGly) | 100 days |
| GlyProAsnProGly (GPNPG; printed: GlyProAsnProGly) | 6590 days |
| GlyProAsnSerGly (GPNSG; printed: GlyProAsnSerGly) | 18.9 days |
| GlyProAsnThrGly (GPNTG; printed: GlyProAsnThrGly) | 63.1 days |
| GlyProAsnTrpGly (GPNWG; printed: GlyProAsnTrpGly) | 122 days |

same assay, conditions: pH 7.4, 37.0 ° C., 0.15 M Tris HCl; Gln pentapeptides; 52 values measured, rest derived from surface fitting

| Substance | First-Order Deamidation Halftimes of GlyXxxGlnYyyGly |
| --- | --- |
| GlyMetGlnSerGly (GMQSG; printed: GlyMetGlnSerGly) | 4100 days |
| GlyMetGlnThrGly (GMQTG; printed: GlyMetGlnThrGly) | 3800 days |
| GlyMetGlnTrpGly (GMQWG; printed: GlyMetGlnTrpGly) | 9400 days |
| GlyMetGlnTyrGly (GMQYG; printed: GlyMetGlnTyrGly) | 8200 days |
| GlyMetGlnValGly (GMQVG; printed: GlyMetGlnValGly) | 5000 days |
| GlyPheGlnAlaGly (GFQAG; printed: GlyPheGlnAlaGly) | 6300 days |
| GlyPheGlnArgGly (GFQRG; printed: GlyPheGlnArgGly) | 7200 days |
| GlyPheGlnAspGly (GFQDG; printed: GlyPheGlnAspGly) | 8200 days |
| GlyPheGlnCysGly (GFQCG; printed: GlyPheGlnCysGly) | 2000 days |
| GlyPheGlnGluGly (GFQEG; printed: GlyPheGlnGluGly) | 8100 days |
| GlyPheGlnGlyGly (GFQGG; printed: GlyPheGlnGlyGly) | 660 days |
| GlyPheGlnHisGly (GFQHG; printed: GlyPheGlnHisGly) | 6200 days |
| GlyPheGlnIleGly (GFQIG; printed: GlyPheGlnIleGly) | 6400 days |
| GlyPheGlnLeuGly (GFQLG; printed: GlyPheGlnLeuGly) | 6400 days |
| GlyPheGlnLysGly (GFQKG; printed: GlyPheGlnLysGly) | 6200 days |
| GlyPheGlnMetGly (GFQMG; printed: GlyPheGlnMetGly) | 5100 days |
| GlyPheGlnPheGly (GFQFG; printed: GlyPheGlnPheGly) | 8200 days |
| GlyPheGlnProGly (GFQPG; printed: GlyPheGlnProGly) | 10000 days |
| GlyPheGlnSerGly (GFQSG; printed: GlyPheGlnSerGly) | 5900 days |
| GlyPheGlnThrGly (GFQTG; printed: GlyPheGlnThrGly) | 5300 days |
| GlyPheGlnTrpGly (GFQWG; printed: GlyPheGlnTrpGly) | 16000 days |
| GlyPheGlnTyrGly (GFQYG; printed: GlyPheGlnTyrGly) | 12000 days |
| GlyPheGlnValGly (GFQVG; printed: GlyPheGlnValGly) | 7100 days |
